In article PMC12416549 (2024):
Positions count from the first letter of the chain named. In names and notes the source's numbering stands.

Experiments:
[1] = molecular target: TNFR1_mb2; test: SPR
[2] = molecular target: TNFR1_mb1; test: SPR
[3] = molecular target: OX40_mb1; test: SPR
[4] = molecular target: T1, TNFR2 (UniProt P20333 23-212); test: SPR
T1 chain: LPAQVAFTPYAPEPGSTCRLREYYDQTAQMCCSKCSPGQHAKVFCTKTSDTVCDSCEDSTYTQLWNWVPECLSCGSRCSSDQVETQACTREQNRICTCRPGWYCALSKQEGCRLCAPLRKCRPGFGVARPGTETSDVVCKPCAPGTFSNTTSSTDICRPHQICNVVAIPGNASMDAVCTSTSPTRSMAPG

[5] = molecular target: T2, TNFR1 (Homo sapiens, UniProt P19438); test: yeast display SC50
T2 chain: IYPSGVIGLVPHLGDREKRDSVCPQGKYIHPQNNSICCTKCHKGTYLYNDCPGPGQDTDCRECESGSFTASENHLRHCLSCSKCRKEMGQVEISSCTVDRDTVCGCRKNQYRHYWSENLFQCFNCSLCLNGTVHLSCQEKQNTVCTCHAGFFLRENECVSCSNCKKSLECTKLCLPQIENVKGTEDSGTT

B1: TNFR1 (protein)
chain: LVPHLGDREKRDSVCPQGKYIHPQNNSICCTKCHKGTYLYNDCPGPGQDTDCRECESGSFTASENHLRHCLSCSKCRKEMGQVEISSCTVDRDTVCGCRKNQYRHYWSENLFQCFNCSLCLNGTVHLSCQEKQNTVCTCHAGFFLRENECVSCSNCKKSLECTKLCLPQIENVKGTEDSGTT
Binder B1 has a Kd [1] of 24.5 nM, a koff [1] of 0.0773 s⁻¹ and a Kd [2] of 29 nM. The koff [2] was 0.134 s⁻¹.

B2: OX40 (protein)
chain: LHCVGDTYPSNDRCCHECRPGNGMVSRCSRSQNTVCRPCGPGFYNDVVSSKPCKPCTWCNLRSGSERKQLCTATQDTVCRCRAGTQPLDSYKPGVDCAPCPPGHFSPGDNQACKPWTNCTLAGKHTLQPASNSSDAICEDRDPPATQPQETQGPPARPITVQPTEAWPRTSQGPSTRPVEVPGGRA
Binder B2 has a Kd [3] of 30 nM and a koff [3] of 0.033 s⁻¹.

B3: TNFR2_mb1 (designed binder)
chain: LNPEQVAKIGAAIDAGRKYLDAKIEEAKKTLTLRTAQALLVIRSQYERAVDTLFTDPSAAEKELAATLATIDRLLKEHPELAAEIKAFIRSTMAEIRALLAASLAA
B3 was tested, and the koff [4] was 0.00277 s⁻¹.

B4: E16N (designed binder)
chain: MTLQELLREEALRRANAEAFRYALELLAEKFPEQKEYLLDLAEEIESQIRSLSGVDVEDVRKFLDKEWAWVKELLAEHPAELAEVEAARAARLAELRAEVEAKVAA
In the case of B4, the “apparent Kd (screen)” value [5] is reported as 0.446 nM.

B5: E25V (designed binder)
chain: B4 chain with N16E, E25V
For B5, the “apparent Kd (screen)” value [5] was 0.593 nM.

B6: E43I (designed binder)
chain: B4 chain with N16E, E43I
With B6 the “apparent Kd (screen)” value [5] was 0.539 nM.

B7: T2N (designed binder)
chain: B4 chain with T2N, N16E
B7 was tested, and the “apparent Kd (screen)” value [5] was 0.956 nM.

B8: S51L (designed binder)
chain: B4 chain with N16E, S51L
B8 was tested, and the “apparent Kd (screen)” value [5] was 0.653 nM.

B9: S51M (designed binder)
chain: B4 chain with N16E, S51M
B9 was tested, and the “apparent Kd (screen)” value [5] was 0.718 nM.
